Target: T1, Human macrophage migration inhibitory factor (MIF) (human), P14174
T1 chain: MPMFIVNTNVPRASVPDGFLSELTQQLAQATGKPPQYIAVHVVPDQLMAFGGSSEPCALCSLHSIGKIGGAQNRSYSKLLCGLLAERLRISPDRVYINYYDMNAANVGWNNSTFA
Assay: crystal structure; MIF (~18 mg/mL) co-crystallised with the small molecule T-614 at 1:3 protein-inhibitor molar ratio; hanging drop vapor diffusion; 20 mM Tris HCl pH 7.5, 2 M (NH4)2SO4, 3% 2-propanol; 20 C
Settings: remark: other sources report otherwise

B1: Human macrophage migration inhibitory factor (MIF), P14174 1-115 (natural protein)
chain: T1 chain
  stoichiometry N: 3
